Measurements taken from the DeepSol protein solubility set.

Experiment: soluble on expression in E. coli; label from the status in PepcDB or PDB records

Sequence	soluble on expression in E. coli
MGSDKIHHHHHHMRAYDVILKKRNGEKLSREEIEFMVGGYVKGEIPDYQMAAFLMAVYFRHLDEEETYYFTETMMRSGEVLDLSEIPGTKVDKHSTGGVGDKTTLVVAPLVASAGVPVAKMSGRALGHTGGTIDKLESIPGFRTELSLEEFIKNVKKYGIAIVGQTGNLVPADKKIYALRDATATVDEISLIASSIMSKKLAGGSDAFVLDVKFGTGAFMKGFEDAKKLAFLMLRIAQQHGKKAVAVLSNMDQPLGKAVGNSLEVIEAIETLKGNGPEDLKELSLTLGALMLELAGVADFEEGKKILQEKLETGEALDKFRLLVKAQGGNERVVDDPWRVLPVAEQVVEFSAAREGFVSKIDAEKVGIASMMLGAGRKKKEDRIDHSVGIIVEKKLGDSVKKGEAIARLFVSDRSDVESALKLLKEAYVISDSPSEPPRVVEEVIK	not soluble
MPDELKPHFANVQAHYDLSDDFFRLFLDPTQTYSCAYFERDDMTLQEAQIAKIDLALGKLGLQPGMTLLDVGCGWGATMMRAVEKYDVNVVGLTLSKNQANHVQQLVANSENLRSKRVLLAGWEQFDEPVDRIVSIGAFEHFGHERYDAFFSLAHRLLPADGVMLLHTITGLHPKEIHERGLPMSFTFARFLKFIVTEIFPGGRLPSIPMVQECASANGFTVTRVQSLQPHYAKTLDLWSAALQANKGQAIALQSEEVYERYMKYLTGCAEMFRIGYIDVNQFTCQK	soluble
MATLDVNPELYQAQLADKIARLKAMFVDYSMPELEVFESPVANYRMRAEFRIWHEGDDMYYIMFNQETREKYRVDQFPAASRLINDLMPLLMDAMKGSPILRHKLFQVDFLSTLSGEILVSLLYHRQLSEEWITAAQALKQRLNDEGFNLNLIGRARKMKVVLDRDYVVENLQVNGQPYVYKQVENSFTQPNAKVAEKMLEWAVDCTQESKGDLLELYCGNGNFSLALAQNFERVLATELAKPSVEAAQFNIAANQIGNVQIIRMSAEEFTQAMEGKREFNRLKDAGVDLQSYRCNTIFVDPPRSGMDIDTCKMVQGYERILYISCNPETLQENLQVLGETHQVVRFALFDQFPYTHHMEAGVMLERKK	not soluble
AKQDYYEILGVSKTAEEREIRKAYKRLAMKYHPDRNQGDKEAEAKFKEIKEAYEVLTDSQKRAAYDQYGHAAFEQGGMGGGGFGGGADFSDIFGDVFGDIFGGGRGR	soluble
MSLNNKGSGLTPAQALDKLDALYEQSVVALRNAIGNYITSGELPDENARKQGLFVYPSLTVTWDGSTTNPPKTRAFGRFTHAGSYTTTITRPTLFRSYLNEQLTLLYQDYGAHISVQPSQHEIPYPYVIDGSELTLDRSMSAGLTRYFPTTELAQIGDETADGIYHPTEFSPLSHFDARRVDFSLARLRHYTGTPVEHFQPFVLFTNYTRYVDEFVRWGCSQILDPDSPYIALSCAGGNWITAETEAPEEAISDLAWKKHQMPAWHLITADGQGITLVNIGVGPSNAKTICDHLAVLRPDVCYIGHCGGLRKVRPLADYVLAHAYLRDDHVLDAVLPPDIPIPSIAEVQRALYDATKLVSGRPGEEVKQRLRTGTVVTTDDRNWELRYSASALRFNLSRAVAIDMESATIAAQGYRFRVPYGTLLCVSDKPLHGEIKLPGQANRFYEGAISEHLQIGIRAIDLLRAEGDRLHSRKLRTFNEPPFREGHHHHHH	soluble
MSETIEIDELVFSVKRSTRRRTVGVTVERDKSLVAHLPQGVALDVATRLIASKLLWVHQKLAEHGETARDDVFRIPEFVDGEGFHLLGKHYRLKLVDVPKNVTGVPSVRFEGDRILLRREQAASGGKRIEEYYTRAAHPYLNETVQRWKRIVGVEPGRFVQVMDLGYRWGSCSEDGTLNFHWRTMQLPPRIIEYVVVHELVHIKVPNHSEKFWKMIGSVMPDYESRKAWLKQKGGELLEHHHHHH	not soluble
MSLGAQADTILNVATAGDQNMVDYVKTWLGPKFEAAHPGVKVRVIGTGPGDAGSNKISEKLTAQQESGAQQWDIDVAVVHQKAGGEQVAKGLLQKYRQDIQTGGMVSSPSATQALGVNVDGYVMPMFLSQTAIAWNSDLVTTPPASYDELVAWTQKHPQAFGYNGIKNGMSGVSFVVGWIYAYGTDAQRLSAGPYDKSVEKGWQQAYEKLKAFNKNVTFTPGNAGTLDMLSRGEIAMGPVWVDMFYSWKDQGKLPPSIKLALLAPGMPGQPMYYVIPAKAANPQLARDFIALATSPEVQAQGIVKQFNWYPGIDAGQVKPKLDAATWQKLFAEISPEALAKYGKSFPIAPYFDDIKEGYESQVANEGHHHHHH	soluble
MKKYLNQNVYDALIERLHFLFNDFPIVYISFSGGKDSGLLLNILLDFRDKYYPDREIGVFHQDFEAQYSLTTKYVQETFTSLEGRKKVSLYWVCLPMATRTALSSYEMFWYPWDDKTEDIWVRPMPSQDYVINLENNSITTYRYKMNQEDLAKQFGRWYKQIHGNQKTVCILGNRASESLHRYSGFINKKYGYQKECWITKQFKDVWTASPLYDWSVEDIWHAYYKFSYSYNELYDLFYKAGLKPSQMRVASPFQDYAVDSLNLYRIIDQETWVKLLGRVQGVNFSNIYGRTKAMGYKSIALPKGHSWKSYTQFLLSTLPVRLRNNYVRKFNKSIDFWHKTGGGLAEETINELIEKGYRIARNGISNYTSFKHSRVIFLDQIPDDTDDIVTTKDIPSWKRMCFCILKNDHICRTMGFGLTREQQKIVAFLKEKYKTSLKELESE	not soluble
MMLYFITFREARVLLKSRDLALINVDLMKTGKKIRVRVSKDYVEFPDGSRVKKEIIKRIAEDEGNVYFVRDGEVFKAAIAGEHFYKLVPTIPPTIEINGIRMHRTKGTDPLKDTIAKVNTVKPREGEVVLDTCMGLGYTAIESAKRGARVITIEKDPNVIELAKINPWSRELFESPKIKILQGDSFDLIKKFEDESFDVIIHDPPRFSLAGELYSEEFYMEMFRVLKPGGRLFHYVGNPGKRYRGLDLQKGVMERLRRVGFMKVRRVQEALGVFALKPSLE	soluble
MGSDKIHHHHHHMPAMQHTQPSRPQLVYLAFGPATYHQEACFSIVSALAQLGSAAGEAMDIQVYTDNAQPYARLPVTVHLLDEATRQAWNAPHGYHFRSKHVLLRQVLQQHPLAVLIDTDTFFRTSPLHLFARVAPNRLLCNAIGTRYGADQKCLLYKNLLAILESRGLADCQMPLVNSGVIGLTAENCDTLDRSIAMMDEFYPLAREAYTLEEFCLAVAAYRNLELAECTDVIHHYWSRKAQFRAKIQAWLRKHEHDPLSPPALADVALVNDQLPRPPTLHRLGYKALSLTLPSHERQFARELLYGCYPYPNEFDRACASAWWDKALENLNDRYGHVEPERLRQCLRHPGLRLSLGERRKDIEAHLLRSTQA	not soluble
MVIRRCEKMEEETWKLKIGMCIQAKDFYSKRTDCSVHRPDVGGGLITEGNGYRVVVHDQCEEPNPFIIATTKQTHFGVTHSYIEFSNSNTGAPENIPDCSKHILISVYCDQEASGLDFHTLKYVESNYLHITVKYDTSCINHLGVNYSFMNECERKLTSIYETDTLTCGAKDIQTRDKYLKTCTNTKFDRSVYKTHMQKSKILHVKTELE	not soluble
IGDWGYSVSANLTTISNKVKSLVQDGYSIIAGDKSQSYTMAGYPIGYFYGYKVAGVYQNQAEIDASPVNTLATVTPGDLKFADVNGDGKITPDDRTKIGDPTPDVTYGISLGLSYKNWELSMEMMGQGGNQIYRTWDNYNWAQFNYMEQRLDRWHGEGTSNTQPLLNTKHAINSENSEYFIEDGSFFRIRNLQLAYSFDKTLLSKIRMQALKVYVNIQNLKTWKHNTGYTPEIGGSAIAFGVDNGTYPVPAVYTFGINLTF	not soluble
MGSDKIHHHHHHMSKAMISRENYLQQLIQFKDTDFIKVISGVRRSGKSVLLMQYRDYLQQQGIASENILYLNFESFEYQWVKDAQDFQQLIQEKMPSSQEKIYFLIDEIQFVEGWQKIVNALRVSFNTDIVITGSNANLLSGELATLLSGRYVEIKIYPLSFKEFLHAKNVDSQSRLVDKLYSEYEKYGGFPSVVMADEPLKETILSGIFDSIVLNDIAHRAGVKDTHILKSVILFLADNVGQLVNPSKISNTLTSERVPTSNHTISKYLDLLENAFLFYKAKQYDIRGKGYLKTNAKYFIVDNGLRRHAIGKKGANYANRLENIVFIELLRRGYSVDVGKLDSKEIDFIARKADEILYVQVAFEIPENTHETDNLLHIKDNYKKILITGKYYEQTEIDGIEVIYVVDWLLQ	not soluble
MGSDKIHHHHHHMAIISEHHIFLSDDANVGLQTRLKDAITRAIWDGRFAPGDRLPATRALARHLGISRITVSLAYDALLSTGYIVSIARSGYFVASDAPTRMEIVTPGKGDARDRLDWAARLGPVPPALGAQATPADWRRFRYPFIFGEPDVARFPVDDWRDCVRRGLGKRHFEQVADDASDRDDPFLVEQIVRRSVSGRGVAATVDEVLVTAGAQNALWLMVQVLFGGQGGEVAMEDPGYPELRNLLRQQRLTIHPVPVDRDGLKVDRIPEGVRAVFVTPSHQAPTGATMSMARRQALLERAEAEDFVVIEDDYDYEMSYASPSLPALKSLDQRGRVIYIGSFSKSIFPGLRLGYLTADARVVEHARAIRTLSERHPPGLTQRTVAYFLSEGHYNSHSRRMRMRMARRNEVLREALAEHGLTPALRRATGGTTLWLLGPEDLDADALAVSLRDKSVLIEAGSAFYAGGDAPRNRVRLGFATIETARIADGVALIAEAIREQAPTPR	not soluble
MSDLENKKAEEAPKKRPYNLREKKEKKAAYRSLIRPELADELYDKILNIVVVQKKYKDPDYSAKDLAKELKTNTRYLSAVVNSRFGMNYSCLLNEYRVKDALHLLTDKRYADKNVEEISAMVGFANRQSFYAAFYKNVGETPNGYRKKHAESKK	not soluble
MTVESVNPETRAPAAPGAPELREPPVAGGGVPLLGHGWRLARDPLAFMSQLRDHGDVVRIKLGPKTVYAVTNPELTGALALNPDYHIAGPLWESLEGLLGKEGVATANGPLHRRQRRTIQPAFRLDAIPAYGPIMEEEAHALTERWQPGKTVDATSESFRVAVRVAARCLLRGQYMDERAERLCVALATVFRGMYRRMVVPLGPLYRLPLPANRRFNDALADLHLLVDEIIAERRASGQKPDDLLTALLEAKDDNGDPIGEQEIHDQVVAILTPGSETIASTIMWLLQALADHPEHADRIRDEVEAVTGGRPVAFEDVRKLRHTGNVIVEAMRLRPAVWVLTRRAVAESELGGYRIPAGADIIYSPYAIQRDPKSYDDNLEFDPDRWLPERAANVPKYAMKPFSAGKRKCPSDHFSMAQLTLITAALATKYRFEQVAGSNDAVRVGITLRPHDLLVRPVARHHHHHH	soluble
TRNFEWIVGGNITRSRDKIKSLGGEEQIVLSYDNGVQMVNRVGESPYQFYGYQADGVYSTQAEADAANLSNRTGRRYNAGDVRFVDQNGDNRIDDKDRILLGSAAPSYFGGFYTQLKYKGFALSAEFSYSKDNIAYNAVRQQLEAVSTTNNQSIAAVNRWTVEGQKTDMPKATWKDPVGNSYFSSRWMEDASYLRMKNVTLSYTFSKTLWNFFRSGTIYVTGENLLTFTDYLGMDPEFSYSYAENMQGFDNAKLMQPKTVKMGVNLKF	not soluble
TREFNDLCRPHMEALAILCGETVNLVIRVGTQARFLSSAESTGMLRVGDRQGQVLDAELTAGGRILLAELPRETLEQLYLRPVDLADDDREWGDRRLPADEFERFWRELSAARAVGFAVNVQQTEEGVAAFGVAIRNRARTAVGALTVAVPITRFRQHSQGPLVSQIKNAIRELEVDIADLEP	not soluble
MNELREKDESYRSFLLLSAISSEEPLSQREIARQVGIALGLVNSYLKHLVDKGFVRIKSFPRNRYAYLLTPRGLAEKSRLAYEHLSSFTTLFRVARQDYLALFRALKTQGVGRVAFCGVDEVAEIAYLSLREVGLELALVMDQATDGREFFGKPVVSIPHGLLAGNHHIVITTFKRREALREELLQRGVASELLHQAGEPAGETQSIREEHP	not soluble
